Laboratory results from US20130323237A1 (Novartis, published 2013).

B1: MOR04493 Fab (Fab, V domains shown)
VH: QVQLVQSGAEVKKPGSSVKVSCKASGGTFSSYAISWVRQAPGQGLEWMGGIIPDFGWANYAQKFQGRVTITADESTSTAYMELSSLRSEDTAVYYCARSGMFYSILFDYWGQGTLVTVSS
VL: DIQMTQSPSSLSASVGDRVTITCRASQDIYNYLNWYQQKPGKAPKLLIYGASSLQSGVPSRFSGSGSGTDFTLTISSLQPEDFAVYYCQQQNDYPLTFGQGTKVEIKR
notes: carries two C-terminal tags (FLAG and 6xHis)
B2: MOR04832 Fab (Fab, V domains shown)
VH: QVQLVQSGAEVKKPGSSVKVSCKASGGTFSSYAISWVRQAPGQGLEWMGNIYPIFGYANYAQKFQGRVTITADESTSTAYMELSSLRSEDTAVYYCARYGQYGQHFSHGGMDVWGQGTLVTVSS
VL: DIQMTQSPSSLSASVGDRVTITCRASQDISISLTWYQQKPGKAPKLLIYGAFSLQSGVPSRFSGSGSGTDFTLTISSLQPEDFATYYCQQYYGTSATFGQGTKVEIKR
notes: as for B1
B3: MOR04494 Fab (Fab, V domains shown)
VH: QVQLVESGGGLVQPGGSLRLSCAASGFTFSSYYMSWVRQAPGKGLEWVSNISYDSSDTYYADSVKGRFTISRDNSKNTLYLQMNSLRAEDTAVYYCARQQYFDHIDIWGQGTLVTVSS
VL: DIELTQPPSVSVAPGQTARISCGGDSLGGKYVYWYQQKPGQAPVLVIYGDSKRPSGIPERFSGSNSGNTATLTISGTQAEDEADYYCQSYTNALSTVFGGGTKLTVLG
notes: as for B1
B4: MOR04496 Fab (Fab, V domains shown)
VH: QVQLVESGGGLVQPGGSLRLSCAASGFTFSSYAISWVRQAPGKGLEWVSSISYSGSSTYYADSVKGRFTISRDNSKNTLYLQMNSLRAEDTAVYYCARMEYWYHLLYMDYWGQGTLVTVSS
VL: DIVLTQSPATLSLSPGERATLSCRASQSIGDNYLAWYQQKPGQAPRLLIYDANNRATGVPARFSGSGSGTDFTLTISSLEPEDFATYYCQQYDDHPLTFGQGTKVEIKR
notes: as for B1
B5: MOR04497 Fab (Fab, V domains shown)
VH: QVQLVESGGGLVQPGGSLRLSCAASGFTFSNHALSWVRQAPGKGLEWVSGIQYDGSNTGYADSVKGRFTISRDNSKNTLYLQMNSLRAEDTAVYYCARYYGYSYMDYWGQGTLVTVSS
VL: DIELTQPPSVSVAPGQTARISCSGDNLGSKYVHWYQQKPGQAPVLVIYADNNRPSGIPERFSGSNSGNTATLTISGTQAEDEADYYCQSYDHMLQVFGGGTKLTVLG
notes: as for B1

Target: T1, recombinant human TSLP (R&D Systems) (human, UniProt Q969D9 29-159)
T1 construct: also called hTSLP; human thymic stromal lymphopoietin
Assay: SPR (Biacore), biotinylated recombinant human TSLP on SA-chip, Fab as analyte
Method: A respective amount of biotinylated human serum albumin (HSA) was immobilized on the reference flow cell. […] The Fabs were applied in concentration series of 16-500 nM at a flow rate of 20 μl/min. Association phase was set to 60 s and dissociation phase to 120 s.

| Binder | binding result |
| --- | --- |
| B1 | binds |
| B2 | binds |
| B3 | binds |
| B4 | binds |
| B5 | binds |
